Reference: US20250177482

Experiments:
[1] = tested on: Complement Component 3b (C3b) in vitreous humor of African Green Monkeys
[2] = tested on: CFI-HSA (human serum albumin fused to the N-terminal end of wild type CFI)

Substance | ratio of C3b/iC3b in vitreous humor (chemiluminescent western blot, densitometry) [1] | activation (cleavage of CFI-HSA into its activated form) [2]
CFI-HSA (human serum albumin fused to the N-terminal end of wild type CFI) | showing a significant increase in cleavage in eyes receiveing a 1.0 mg injection of CFI-HSA compared to vehicle controls | –
recombinant furin | – | more than 90% activation of the protein
